According to paper PMC6234480:
Numbering of substitutions follows the chain as printed. Names may count otherwise.

B1: N‐TIMP3 (13.9 kDa N‐domain; aa 1‐120) (domain or fragment)
chain: CTCSPSHPQDAFCNSDIVIRAKVVGKKLVKEGPFGTLVYTIKQMKMYRGFTKMPHVQYIHTEASESLCGLKLEVNKYQYLLTGRVYDGKMYTGLCNFVERWDQLTLSQRKGLNYRYHLGC
B2: N‐HSA (N‐TIMP3 fused with human serum albumin) (protein)
chain: B1 chain
B3: N‐PEG (PEGylated N‐TIMP3) (domain or fragment)
chain: B1 chain
modifications: PEG, size and site not stated
B4: Wild‐type TIMP3 (Tissue Inhibitor of Metalloproteinase 3) (natural protein)
chain: CTCSPSHPQDAFCNSDIVIRAKVVGKKLVKEGPFGTLVYTIKQMKMYRGFTKMPHVQYIHTEASESLCGLKLEVNKYQYLLTGRVYDGKMYTGLCNFVERWDQLTLSQRKGLNYRYHLGCNCKIKSCYYLPCFVTSKNECLWTDMLSNFGYPGYQSKHYACIRQKGGYCSWYRGWAPPDKSIINATDP
modifications: endogenous glycosylation site at Asn184
B5: TIMP3v82 (H55N/Q57T/K71N/E73T/D87N/K89T/R115T) (natural protein)
chain: B4 chain with H55N, Q57T, K71N, E73T, D87N, K89T, R115T
modifications: additional glycosylation sites, site‐specific glycosylation confirmed by mass spec analysis (data not shown); endogenous glycosylation site at Asn184
B6: v82‐HSA (TIMP3v82 fused with human serum albumin) (protein)
chain: B4 chain with H55N, Q57T, K71N, E73T, D87N, K89T, R115T
modifications: additional glycosylation sites
B7: TIMP3v2 (K22S/F34N TIMP3) (natural protein)
chain: B4 chain with K22S, F34N
modifications: additional glycosylation site (F34N), >95% occupancy by mass spectrometry; endogenous glycosylation site at Asn184
B8: v82‐Fc (v82 with Fc fused in the C‐terminus) (Fc fusion)
chain: B4 chain with H55N, Q57T, K71N, E73T, D87N, K89T, R115T
modifications: additional glycosylation sites
B9: WT‐HSA (wild‐type TIMP3 fused with human serum albumin) (protein)
chain: B4 chain
B10: v2‐PEG (TIMP3v2 PEGylated with 20 kDa polyethylene glycol) (natural protein)
chain: B4 chain with K22S, F34N
modifications: 20 kDa polyethylene glycol (PEG), site not stated; additional glycosylation site (F34N)
B11: v2‐HSA (TIMP3v2 fused with human serum albumin) (protein)
chain: B4 chain with K22S, F34N
modifications: additional glycosylation site (F34N)
B12: v2‐Fc (TIMP3v2 fused with Fc) (Fc fusion)
chain: B4 chain with K22S, F34N
modifications: additional glycosylation site (F34N)
B13: N‐Fc (N‐TIMP3 fused with Fc) (Fc fusion)
chain: B1 chain

Each binder was assayed against human recombinant TACE (TNFα converting enzyme) (human) (UniProt P78536).
UniProt P78536, sequence (P78536 18-824): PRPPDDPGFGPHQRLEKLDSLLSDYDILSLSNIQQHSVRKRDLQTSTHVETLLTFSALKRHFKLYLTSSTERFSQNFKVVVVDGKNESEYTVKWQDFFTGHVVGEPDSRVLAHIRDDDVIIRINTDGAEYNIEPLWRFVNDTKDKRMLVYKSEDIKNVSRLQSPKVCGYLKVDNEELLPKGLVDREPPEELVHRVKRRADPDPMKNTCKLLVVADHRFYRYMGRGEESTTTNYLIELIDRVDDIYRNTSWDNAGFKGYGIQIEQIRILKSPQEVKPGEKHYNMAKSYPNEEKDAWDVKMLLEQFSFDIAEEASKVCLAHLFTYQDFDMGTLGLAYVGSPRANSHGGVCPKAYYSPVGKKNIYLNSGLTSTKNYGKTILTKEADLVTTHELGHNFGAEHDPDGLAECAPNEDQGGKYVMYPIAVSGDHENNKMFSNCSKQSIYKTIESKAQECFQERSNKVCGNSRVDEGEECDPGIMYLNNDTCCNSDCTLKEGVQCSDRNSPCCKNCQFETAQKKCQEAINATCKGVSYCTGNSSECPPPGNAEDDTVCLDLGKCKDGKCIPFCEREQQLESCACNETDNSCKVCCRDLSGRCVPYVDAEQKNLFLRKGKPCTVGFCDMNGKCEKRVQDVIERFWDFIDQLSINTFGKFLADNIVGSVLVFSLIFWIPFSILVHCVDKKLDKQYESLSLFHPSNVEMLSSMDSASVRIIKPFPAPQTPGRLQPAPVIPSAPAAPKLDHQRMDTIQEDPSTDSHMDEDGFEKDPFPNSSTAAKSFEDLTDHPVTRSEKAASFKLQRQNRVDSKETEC

IC50 of inhibition of human TACE activity (SensoLyte 520 TACE fluorimetric kit) [nM]	Binder
59	B1
195	B2
197	B3
59	B4
29	B5
145	B6
341	B7
156	B8
12.1	B9
123	B10
6800	B11
618	B12

These binders were tested against catalytic domain of human MMP9 (human).
catalytic domain of human MMP9 (human), sequence (P14780 20-707): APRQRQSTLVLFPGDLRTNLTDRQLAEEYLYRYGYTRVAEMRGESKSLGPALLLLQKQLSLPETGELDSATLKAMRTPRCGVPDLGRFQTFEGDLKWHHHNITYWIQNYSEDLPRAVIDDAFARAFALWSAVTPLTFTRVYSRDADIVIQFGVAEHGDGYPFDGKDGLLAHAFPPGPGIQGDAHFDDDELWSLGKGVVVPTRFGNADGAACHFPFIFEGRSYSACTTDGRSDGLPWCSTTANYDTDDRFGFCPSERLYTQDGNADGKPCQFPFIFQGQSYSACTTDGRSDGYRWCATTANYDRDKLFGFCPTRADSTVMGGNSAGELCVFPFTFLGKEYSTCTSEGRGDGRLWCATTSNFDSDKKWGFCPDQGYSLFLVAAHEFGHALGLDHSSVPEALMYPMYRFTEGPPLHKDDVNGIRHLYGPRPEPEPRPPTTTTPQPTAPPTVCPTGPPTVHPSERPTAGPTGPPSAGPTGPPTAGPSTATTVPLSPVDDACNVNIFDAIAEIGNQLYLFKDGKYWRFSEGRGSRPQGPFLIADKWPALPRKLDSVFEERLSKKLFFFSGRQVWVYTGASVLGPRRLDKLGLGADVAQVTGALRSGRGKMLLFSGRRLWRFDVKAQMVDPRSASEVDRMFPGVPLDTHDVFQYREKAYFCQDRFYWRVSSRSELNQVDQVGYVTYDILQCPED

IC50 of inhibition of human MMP9 activity (cleavage of 5-FAM/QXL 520 FRET peptide, 37°C) [nM]	Binder
1.5	B1
1.1	B2
1.6	B13
0.7	B3
0.9	B4
2.3	B5
7.4	B6
6.9	B7
10.5	B8
0.6	B9
9	B10
16	B11
10	B12

What follows are binders tested against recombinant rat MMP9 (rat pro‐MMP9) (rat) (UniProt P50282).
UniProt P50282, sequence (P50282 20-708): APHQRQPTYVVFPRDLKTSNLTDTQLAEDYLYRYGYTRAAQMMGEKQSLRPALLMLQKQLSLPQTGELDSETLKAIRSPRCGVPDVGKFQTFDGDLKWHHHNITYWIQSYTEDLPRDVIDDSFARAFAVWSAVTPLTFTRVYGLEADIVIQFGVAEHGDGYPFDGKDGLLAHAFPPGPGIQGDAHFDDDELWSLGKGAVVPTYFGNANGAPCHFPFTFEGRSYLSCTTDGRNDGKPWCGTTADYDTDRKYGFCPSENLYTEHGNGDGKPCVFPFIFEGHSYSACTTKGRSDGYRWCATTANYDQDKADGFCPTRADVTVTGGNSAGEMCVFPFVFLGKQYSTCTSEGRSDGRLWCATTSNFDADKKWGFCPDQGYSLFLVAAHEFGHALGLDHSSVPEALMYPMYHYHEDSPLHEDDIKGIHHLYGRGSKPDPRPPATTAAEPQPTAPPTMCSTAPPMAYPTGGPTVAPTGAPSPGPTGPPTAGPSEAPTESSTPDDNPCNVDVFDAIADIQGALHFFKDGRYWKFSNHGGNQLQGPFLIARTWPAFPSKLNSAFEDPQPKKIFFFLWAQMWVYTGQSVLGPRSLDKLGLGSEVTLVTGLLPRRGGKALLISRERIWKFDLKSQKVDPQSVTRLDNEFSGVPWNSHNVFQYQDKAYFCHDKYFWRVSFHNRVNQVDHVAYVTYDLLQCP

IC50 of inhibition of rat MMP9 activity (cleavage of 5-FAM/QXL 520 FRET peptide, 37°C) [nM]	Binder
2.4	B1
10.8	B2
1.3	B3
0.9	B4
14.3	B5
152	B6
15.5	B7
77	B8
50.8	B9
60	B10
65	B11
36	B12

These binders were tested against recombinant human MMP2 (pro‐MMP2 activated with APMA) (human).
recombinant human MMP2 (pro‐MMP2 activated with APMA) (human), sequence (P08253 30-660): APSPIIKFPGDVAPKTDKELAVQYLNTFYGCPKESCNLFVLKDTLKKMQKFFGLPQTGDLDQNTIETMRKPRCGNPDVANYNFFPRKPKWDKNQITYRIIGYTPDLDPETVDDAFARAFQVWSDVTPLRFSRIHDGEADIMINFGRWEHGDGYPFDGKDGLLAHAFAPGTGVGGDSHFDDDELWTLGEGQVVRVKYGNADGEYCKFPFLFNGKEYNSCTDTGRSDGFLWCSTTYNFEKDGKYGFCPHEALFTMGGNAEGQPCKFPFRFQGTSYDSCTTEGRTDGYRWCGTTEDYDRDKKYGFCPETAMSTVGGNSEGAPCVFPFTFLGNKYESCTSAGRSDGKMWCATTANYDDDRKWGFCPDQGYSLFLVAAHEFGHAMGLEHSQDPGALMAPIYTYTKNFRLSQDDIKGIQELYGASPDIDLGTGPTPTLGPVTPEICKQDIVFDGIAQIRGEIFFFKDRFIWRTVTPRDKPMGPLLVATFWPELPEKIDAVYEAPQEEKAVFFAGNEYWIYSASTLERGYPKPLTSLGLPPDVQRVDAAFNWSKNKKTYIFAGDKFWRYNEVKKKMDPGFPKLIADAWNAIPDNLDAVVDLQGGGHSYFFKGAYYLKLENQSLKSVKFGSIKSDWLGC

IC50 of inhibition of human MMP2 activity (cleavage of 5-FAM/QXL 520 FRET peptide, 90 min, 37°C) [nM]	Binder
5.8	B1
6	B2
9.7	B13
9.8	B3
0.6	B4
1	B5
1.6	B6
0.9	B7
2.7	B8
0.8	B9
0.4	B10
5.1	B11
0.9	B12

These binders were tested against recombinant rat MMP2 (pro‐MMP2 activated with APMA) (rat).
recombinant rat MMP2 (pro‐MMP2 activated with APMA) (rat), sequence (P33436 110-662): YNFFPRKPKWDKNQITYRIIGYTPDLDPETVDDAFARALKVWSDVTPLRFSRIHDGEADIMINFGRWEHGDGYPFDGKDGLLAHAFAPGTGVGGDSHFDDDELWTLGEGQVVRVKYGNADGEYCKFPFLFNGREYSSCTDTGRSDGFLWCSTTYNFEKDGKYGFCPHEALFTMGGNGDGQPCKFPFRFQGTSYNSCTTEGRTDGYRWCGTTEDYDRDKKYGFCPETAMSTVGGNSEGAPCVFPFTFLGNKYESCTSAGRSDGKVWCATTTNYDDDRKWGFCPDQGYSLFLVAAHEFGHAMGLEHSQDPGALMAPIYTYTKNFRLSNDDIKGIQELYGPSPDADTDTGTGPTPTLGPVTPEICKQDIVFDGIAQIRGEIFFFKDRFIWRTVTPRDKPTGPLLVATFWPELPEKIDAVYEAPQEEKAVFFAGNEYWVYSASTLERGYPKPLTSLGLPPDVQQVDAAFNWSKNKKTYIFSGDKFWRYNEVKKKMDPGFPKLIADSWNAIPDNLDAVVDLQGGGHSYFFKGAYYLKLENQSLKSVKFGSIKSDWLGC

IC50 of inhibition of rat MMP2 activity (cleavage of 5-FAM/QXL 520 FRET peptide, 90 min, 37°C) [nM]	Binder
3.4	B1
3.6	B2
1.7	B3
1.4	B4
0.2	B5
0.3	B6
0.5	B7
1	B8
0.2	B9
0.1	B10
0.7	B11
0.9	B12
